Patent US20050130175A1

How the values were obtained:
[1] = molecular target: in vitro translated S38A wee1 (UniProt P47817); assay: glutathione precipitation from Xenopus interphase egg extract with nuclei and MG132, wee1 Western blot
[2] = molecular target: in vitro translated wild-type wee1 (UniProt P47817); assay: as above

| % of input wee1 precipitated [1] | % of input wee1 pulled down [2] | % of input wee1 precipitated [2] | Substance |
| --- | --- | --- | --- |
| 2.5 % of input | 25 % of input | – | GST-Tome-1 (as used in the wee1 binding assay in Xenopus egg extracts) (from UniProt P08515 1-218) |
| 8 % of input | – | 8 % of input | GST-VCA (GST fusion with the C terminus of the actin nucleating scaffolding protein N-WASP) (from UniProt P08515 1-218) |
